Results taken from the DeepSol protein solubility set.

Experiment: soluble on expression in E. coli; label from the status in PepcDB or PDB records
With “MAHHHHHHMNDIYARRLAQATMFHQLMRCHGTLWAATQVTKEQMDYNFIREEFMRVNGRRAMPLLLGAAANENLHQLHLSHLSEHCAWGESARALAVQRQTPLSQRVAALGRMAETIHQVKTASTVQNLFNEQISCMEGISSFEEEPLIEGE” the “soluble on expression in E. coli” value was “not soluble”.
With “MSASYQTIEHDVPQSYRDKILKWNGWGYSDSQFAINKDGHVTFTGDKYEISGKVMPHFRPWFENYLGIDLGFVSPAQKLSDVIIDAPVENEDIIEFLQENKISFSNEARIRLMRGHGHTVHDMINLREGKIPRLPDIVVWPKSEHEIVKIIEGAMSHNCAIIPIGGGTSVTNALDTPETEKRAVISMDMALLDKILWIDRENLTCRAQAGIVGQSLERQLNKKGFTCGHEPDSIEFSTLGGWVSTRASGMKKNKYGNIEDLVVHLNFVCPKGIIQKQCQVPRMSSGPDIHQIILGSEGTLGVVSEVTIKIFPIPEVKRFGSFVFPNFESGVNFFREVAIQRCQPASLRLMDNDQFVMGQALKVASDSWWADLKSSVSKMYITSWKGFKVDEICAATCVYEGNREEVDQHEERLNKLAEQFHGVVGGAENGQYGYRLTFAIAYLRDLGMNHGVLGESFETSVPWDKVLSLCRNVKELMKREAKAQGVTHPVLANCRVTQVYDAGACVYFYFGFNARGLKNGLEVYDRIETAARDEIIACGGSISHHHGVGKIRKQWMLTTNGAVGIALLKAIKSELDPANIFASANLIDIIGSPHCKL” the “soluble on expression in E. coli” value was “not soluble”.
In the case of “MNETTNEQEVLLLRRKLDLLLRTGKLLMESAADTNRIERNMKRVAAYLGIPEEKLHIDIRWTMLMVNVSDEKHSFSKFQKCEKHGINMEAISKISKLSWRAIEQDYSLDKYEEELEKIARQERNYTPYVVAICTGFACGGFCK”, the “soluble on expression in E. coli” value was “not soluble”.
With “MNVNRLLIVGAGAFGREVHAWLLDWVKLNPGWVIAGFINDGPGSIARFDHYPAVVSSVEGYEPGPEDYLVCAIAKPADKRLVVEKLLGKGARFFTLIHPSVIMGENVVIGQGAVICPSTVLSVDLRIGAFVTLNIGCLVGHDADIGDFSTLSGHCDITGGVVLEEEVFMGTHASVLPNVKVGKQAVVGAGSVAIRNVAAGITVFGVPAKRISGLEHHHHHH” the “soluble on expression in E. coli” value was “not soluble”.
In the case of “MTLPMQETRFSILLDELAAKQEAAIAPHLLADGTKVWIRKAGRHNARWRYALLGMVARYLKLGVLKPVPSLGGEPAIATESKRLYELRSAGIAVPELLAVRKNALMFGNLEGIPLDAQIRQEAEAGKSDAWLAGLEAIARVHKKRQFLSQAFARNMMSDGKNISFLDFEDDPSEVLTIAQCQARDWLCYIHSTALILKNGGLLEAAAEKWGGVLSDQPAEIQKLIAATVKPILPIRRLEHPRWGRDALRLAASISLISLADMPP”, the “soluble on expression in E. coli” value was “not soluble”.
For “GPGSMKLERSSCFEVQGCISCLTQASNEDACLASTMMNGAHIFHMGDLQHAQCGARQAVTHVETFPHGNFGEGAVISSSFVSYDSCFATGSSSGDIVLVSRHSKNVVQHYSFQNKAAVLSLKEVPNEPSLLLACSPTDAQIIDLETSTARINLHIPKPCVVGGTALTQNTLVVAAYDGKAMLYDVRRGHEPVVILAVPDQIISITSSPDTGAVATGTVSGRVFVLRCLEGNVREEAFSTGKERAPIRSVAMRNGYIAAGDTSAKLTCLDLKEDPKPTRYWDLHSLLTNESGPPSSGAEKLSSVTVPDTESWSLPAVMLQQSDLWAALSSTKYGVSHILAIPI”, the “soluble on expression in E. coli” value was “not soluble”.
With “MGSDKIHHHHHHMPPRKKAAIASTGIAGLDEILRGGLPLPNLFMLQGAPGSGKTTAAIQFLRAGVEAGESCLYVTLSQSAAELRSIAVSHGWTLDGIHVEELSTTGSIDEADEQSIFMTADLRLDETRKAIEAAIDEHKPQRLVYDSLLEIRLITGDSPRFRRELIGFKSFLSKRKVVALLLDTQSPGLDRSGEEVEGLAHGVIRFDKSLEEYGGVRRRIEVSKMRGVPIADGYHDMAIREGAGVVVFPRIMPSTATEATKPQLIKSGVSELDDMFGGGQEAGTTTLVIGQAGTGKSTMSSLYATAALERGESVALFLFEERLETFFRRSEGLGMQLRQFHKDGKLILRDFNPNEVSPGEFGQIVQDAVVQNKVRVVVIDSLTGYLNSLPHREKAVRDIQSLLKYLARSGVLTMLIVAQHGLLGQNVGIDVDVSFLGDTVLLLRIMEHEGRLRRSITVVKKRHGPHDLDVRELLIESGSVSVVSYNPLPDPK” the “soluble on expression in E. coli” value was “not soluble”.
With “MSLKQPAVFFDKNVSTIEENNSLLDGQTDVPVLDPHDLLVEVQAVSVNPVDTKLRQTGVASKIKILGYDAFGIVKNTGKDVTRFHAGDRVYYAGTTQRPGSNEKFQAVDERLVGRAPEKLNKSEIAAMPLTSITAYEILVDQLGLRFQNHAADGKNMLVINGAGGVGSVLLQMAAYLGINLSVTAHSSESIEWLKKYSVDKIYDYENIDETLADQKFDYIVFLYDPALYWDIAIKHIKPYGQLVSIVGTNKPLNMGPLKNIAVQFKWEYMFAKSDFNHNILSQGQALDKIAILLDAGILKTTLNKTFDLINAENLRQAYKLVESGRMQGKVVLNGPFDKALKEGHHHHHH” the “soluble on expression in E. coli” value was “soluble”.
In the case of “MGSDKIHHHHHHMDYLTTNKIAWDARTRVHLTSDFYDVEGFLSGKISLTEIELNELAVAGKSLLHLQCHFGLDTLSWARMGAKVTGVDLSEVAIAEACKLAQQTQLSAEFICSDVYSVVGKVEPQDIVFTSYGAIVWLPDLTLWAQTIAACLKPGGQFYMAEFHPAQQLFDGYSYFNRGEPDIEQEGTYTENASDDQQTLMCWSHSLSEVINALLQAGLELVFFHEFAFSPYNCFEGLEAQADGRYVLIHQGQQVPLVYSISARKPV”, the “soluble on expression in E. coli” value was “not soluble”.
For “MMRPDAKVEKVYLYPKPVDFRKSIDGLAALVELDIKVAVFDPVLFVFLNRHRNRVKILYWERNGFCLWLKRLESERFKTSPDETDEAIVLTVQELNWLLDGFDLWRNRPHKVLTPRFVA”, the “soluble on expression in E. coli” value was “not soluble”.
For “MSLKPLSSPLQQYWQTVVERLPEPLAEESLSAQAKSVLTFSDFVQDSVIAHPEWLTELESQPPQADEWQHYAAWLQEALCNVSDEAGLMRELRLFRRRIMVRIAWAQTLALVTEESILQQLSYLAETLIVAARDWLYDACCREWGTPCNAQGEAQPLLILGMGKLGGGELNFSSDIDLIFAWPEHGCTQGGRRELDNAQFFTRMGQRLIKVLDQPTQDGFVYRVDMRLRPFGESGPLVLSFAALEDYYQEQGRDWERYAMVKARIMGDSEGVYANELRAMLRPFVFRRYIDFSVIQSLRNMKGMIAREVRRRGLTDNIKLGAGGIREIEFIVQVFQLIRGGREPSLQSRSLLPTLSAIAELHLLSENDAEQLRVAYLFLRRLENLLQSINDEQTQTLPSDELNRARLAWAMDFADWPQLTGALTAHMTNVRRVFNELIGDDESETQEESLSEQWRELWQDALQEDDTTPVLAHLSEDDRKQVLTLIADFRKELDKRTIGPRGRQVLDHLMPHLLSDVCAREDAAVLSRITALLVGIVTRTTYLELLSEFPAALKHLISLCAASPMIASQLARYPLLLDELLDPNTLYQPTATDAYRDELRQYLLRVPEDDEEQQLEALRQFKQAPVLRIAAADIAGTLPVMKVSDHLTWLAEAMIDAVVQQAWVQMVARYGKPNHLNEREGRGFAVVGYGKLGGWELGYSSDLDLIFLHDCPMDAMTDGEREIDGRQFYLRLAQRIMHLFSTRTSSGILYEVDARLRPSGAAGMLVTSAEAFADYQKNEAWTWEHQALVRARVVYGDPQLTAHFDAVRREIMTLPREGKTLQTEVREMREKMRAHLGNKHRDRFDIKADEGGITDIEFITQYLVLRYAHEKPKLTRWSDNVRILELLAQNDIMEEQEAMALTRAYTTLRDELHHLALQELPGHVSEDCFTAERELVRASWQKWLVEEEGHHHHHH”, the “soluble on expression in E. coli” value was “soluble”.
In the case of “MADHSIQGKVALIAGGAKNLGGLIARDLAAHGARAIAIHYNSPASKADADATVAALQAAGAQAVALQGDLTTAAAVEKLYADALAAVGRPDIAINTVGKVLKKPFSEISEAEYDEMAAVNAKSAFFFLKEAGRHVNDHGKIVTLVTSLLGAFTPFYSAYAGTKAPVEHYTRAAAKEFGARGISVTAVGPGPMDTPFFYGQESPEAVAYHQSAAALSPHSPTGLTHIEDVVPFIRHLVSDGWWITGQTLLINGGYTTK”, the “soluble on expression in E. coli” value was “not soluble”.
In the case of “MNGPEVLRFAANLYRVPVEGGYFLVDAGLPWEARRLLSLLQEPPRLLFLTHHHLDHAGGARALWERFRVPVLAHPQEWAYLTKRKPRPPLPLPLLGKGARQLGADDPGGGPRPRGGRGWRSSASGWSTSRGTPLGQVGLFREGVLLAGNALRGRGLPPRFINEDHALARRTVRKILELGVKRVYLGHGGPLSGEEVAAIARRLGV”, the “soluble on expression in E. coli” value was “soluble”.
With “LESKNMTWYRMLLVTPVRQGEKVRKFFLHAFHSFEYRALSSGTEEEGLVLTVNDSERTEEIFSCCEKMKAFCKNFLGETPQILCSRAYQQGDDSSLLYEQTKAYAKGRSAEQILIVPQNAEEGDGTDTLLKRVQTYIRNHYTERLTLADIAEAVHVSSSYLSRFYKLKAGENLFDTINSLRVEKAKELLLRGDKKIYEIAALTGFEDTAYFSKVFKKYAGCPPKEYEQSGGRNL” the “soluble on expression in E. coli” value was “not soluble”.
With “MYSGARQGVISGKVTHHNEVFYEFFDKDYKYLFGKVKDIFTDVGAWVEYNVEKVQSHPKNCLHFAQNVNTEVKRTNAPTCDVFSSNRFQFDVREFNKVDFFQFDNADRQLSFKGTIRFNSNKNQFYHEYYGDVLVGEAEKLIRFGINEIDVMMNLYRSDEYTRGPHWYVKHYINKGKSYNINGYLSINGFVLRGPGGVVRNKNQVNIPPDALRPNNPVPNLSNGTSSQELAAAPNRNNFPTYATQRPRRNSDWDDEEPQTTAAPAGTSNSTAAASRPQVGDGKTGFRAFGGDAAPQSRGFDDGAIQRRAFGGLTTAPAAAPNRNNFPTYATQRPRRNSDWDDEDPQTTAAPAGTFNSAAASFRPQVGNGKAGSRAFGGDTAPQRSGLDDGATQRRAFEGLTIAPAAASNRNSFPTFATQRPRRNSDWGDEEPETTVAPAGKSNSTAAASRPQVGNGKTGSRPFGGDTAPQRRGLDDGAIQRRAFGGLTTAPAAAPNQNNFPTFATQRPRRNSDWDDEEPQATDAPAGTFNSAAASFRPQVGNGKAGSRAFGGDTAPQTSGLDDGAIERRAFGALATAPREVVLGGERAAGQLRPRGPESTIQPRRVPQSRQFGGVSATSNDPTTPEPRRINETPRVLLPPQSKGRRVDS” the “soluble on expression in E. coli” value was “not soluble”.
In the case of “TMSHGFGVMAGINLTKNIGVQAEVNYYQINQKYADGNLNRDLTINYFNIPVLLSLNTNKAAPVNLNLVAGPQFGINAGSKFETSGNGNTDSTTAVVALRKGDVGVAYGAGLEFALNKSHSVRLDLGFRGFYGLVNMDSSTNGQGTYNVIVSASRKTYGGYAGITWMF”, the “soluble on expression in E. coli” value was “not soluble”.
For “MAIINGSQYIERVDNLQSNVWINGERVVGKLSEHPAFAGAIRSQARLYDAQHDPTKQPVLTFRTSTGELAGAAFLRPATKEDLEHRRLAFQEWARLTAGMMGRSPDYMNHRRDGARLGR”, the “soluble on expression in E. coli” value was “not soluble”.
In the case of “MSLTKLYYEDQYIKEFKGEIIEVKEIDGKFHVLLDQTAFFPGGGGQMGDLGLIDGIKVLDVYEEEGKVYHVLEKEPKKLKNLQCELDWERRFDGMQQHLGQHLLSGCFYDLFGANTCGFHLGKEISTVDIVGFLDEKTIREAEKEANRLIFENLEVKSYAPSKKELKKVKTRRALPKTDEEIRIVEIVGLDLNACCGVHPRNTRDLQVIKIRRWEKHKNATRIEYVAGNRAVSEGHHHHHH”, the “soluble on expression in E. coli” value was “soluble”.
With “MALFRGMWSVLKALGRTGVEMCAGCGGRIPSSISLVCIPKCFSSMGSYPKKPMSSYLRFSTEQLPKFKAKHPDAKLSELVRKIAALWRELPEAEKKVYEADFKAEWKAYKEAVSKYKEQLTPSQLMGMEKEARQRRLKEKALVKRRELILLGKPKRPRSAYNIYVSESFQEAKDDSAQGKLKLVNEAWKNLSPEEKQAYIQLAKDDRIRTTYEMKSWEEQMAEVGRSDLIRRSVKRSGDISEH” the “soluble on expression in E. coli” value was “soluble”.
With “MTRTNKWTEREGKADPKYFSHTGNYGESPNHIKKQGSGKGNWGKPGDEIDDLIDNGEIPPVFKKDRRGSNLQSHEQKFENVQKE” the “soluble on expression in E. coli” value was “not soluble”.
